This assay deals with human full-length B7H3 expressed on MCF-7 cells (human) (UniProt Q5ZPR3). Nature of the assay: cell-based or functional assay.

The values that follow come from patent publication US20240148892A1.

Chain of human full-length B7H3 expressed on MCF-7 cells (human) (Q5ZPR3 29-534 limits assumed): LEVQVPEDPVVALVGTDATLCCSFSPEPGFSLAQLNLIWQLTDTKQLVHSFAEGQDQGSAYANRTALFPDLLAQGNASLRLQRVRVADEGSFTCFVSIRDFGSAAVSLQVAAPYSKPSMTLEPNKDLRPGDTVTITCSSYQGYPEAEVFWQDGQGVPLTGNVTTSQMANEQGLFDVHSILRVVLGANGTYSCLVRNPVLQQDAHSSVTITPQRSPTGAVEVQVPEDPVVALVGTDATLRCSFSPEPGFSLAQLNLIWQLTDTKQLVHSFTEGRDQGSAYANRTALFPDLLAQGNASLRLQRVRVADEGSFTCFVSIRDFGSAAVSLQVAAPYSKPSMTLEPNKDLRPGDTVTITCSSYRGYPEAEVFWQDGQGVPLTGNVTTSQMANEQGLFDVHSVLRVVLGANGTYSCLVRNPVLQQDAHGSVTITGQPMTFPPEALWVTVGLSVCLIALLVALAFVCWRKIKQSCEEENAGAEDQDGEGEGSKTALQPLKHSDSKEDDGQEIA

B1: reference ADC-1 (Daiichi Sankyo, DS7300) (protein, INN chains, looked up)
VH: QVQLVQSGAEVKKPGSSVKVSCKASGYTFTNYVMHWVRQAPGQGLEWMGYINPYNDDVKYNEKFKGRVTITADESTSTAYMELSSLRSEDTAVYYCARWGYYGSPLYYFDYWGQGTLVTVSS
VL: EIVLTQSPATLSLSPGERATLSCRASSRLIYMHWYQQKPGQAPRPLIYATSNLASGIPARFSGSGSGTDFTLTISSLEPEDFAVYYCQQWNSNPPTFGQGTKVEIK
modifications: deruxtecan payload
As for B1, the IC50 of inhibition of proliferation, A375 melanoma cells (CellTiter-Glo) stood at 315 nM; the IC50 of inhibition of proliferation, A549 lung cancer cells (CellTiter-Glo) is 378 nM; the IC50 of inhibition of proliferation, Calu-6 lung cancer cells (CellTiter-Glo) stood at 428 nM; the IC50 of inhibition of proliferation, HT-29 colorectal cancer cells (CellTiter-Glo) came out at 1140 nM. This molecule also had an IC50 of inhibition of proliferation, MCF-7 breast cancer cells (CellTiter-Glo) of 435 nM; an IC50 of inhibition of proliferation, NCI-H358 lung cancer cells (CellTiter-Glo) of 123 nM; an IC50 of inhibition of proliferation, NCI-H1568 lung cancer cells (CellTiter-Glo) of 32.8 nM; an IC50 of inhibition of proliferation, PC-3 prostate cancer cells (CellTiter-Glo) of 959 nM. This molecule also gave an IC50 of inhibition of proliferation, U87 MG brain cancer cells (CellTiter-Glo) of 354 nM.
